From the supplement of paper PMC9170038

System: MS2 coat protein
Experiment: apparent KD of MS2 coat protein; designed switch direction (-1 OFF switch, 1 ON switch): 1; higher = weaker reporter binding
Method in brief: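 Apparent KD, taken as the median over clusters for each design, was obtained by curve-fitting normalised cluster fluorescence. Designed RNA switches had been transcribed on Illumina chips by stalled E. coli RNA polymerase and titrated with SNAP-549-labelled MS2 coat protein, doubling from 0.7 or 1.5 nM to 3 µM.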

[1] = Eterna round: R95, input ligand: FMN 200 uM
[2] = Eterna round: R95, input ligand: microRNA oligo, concentration not stated
[3] = Eterna round: R95, input ligand: none
[4] = input ligand: microRNA oligo, concentration not stated

Sequence | apparent KD of MS2 coat protein [1] | apparent KD of MS2 coat protein [2] | apparent KD of MS2 coat protein [3] | apparent KD of MS2 coat protein (input ligand: FMN 200 uM) | apparent KD of MS2 coat protein [4] | apparent KD of MS2 coat protein (input ligand: none)
AAGAGAGGAAGCGAGGAUAUCGUGGGAGGGACAUGAGGAUCACCCAUGUAGGAUGUAGAGAGGAACGAGAAGGCGCAGGAAAGAA [JR_SS2_Sub073] (puzzle: Same State 2) | 49 nM | 67.7 nM | 79.2 nM |  |  | 
AUAAAACAUGAGGAUCACCCAUGUCAACAAAGUCGAGGAUAUGGGCAAAUAAAAUAAGAACCAGAAGGUGAAUAAU [salish99_ss1_r3_032] (puzzle: Same State 1) | 131 nM | 31.5 nM | 146 nM |  |  | 
GAGGGACAGACCAACAUGAGGAUCACCCAUGUCCUCGGAGGUCAGGAUAUCCGGAGGUAGCCGAAGGAGAAGGGACGGUGAACC [AK SSNG3-V2-30.1] (Eterna round: R96, puzzle: Same State NG 3) |  |  |  | 322 nM | 136 nM | 197 nM
UGGAAGAAUUAAGGAUAUCGAGUACAUAUGUUUAACAUGAGGAUCACCCAUGUGGGUUGCGGUAUCGAGAAGGUAAAUUACAAG [Mat - same State NG 2 - JL mod - D61] (Eterna round: R96, puzzle: Same State NG 2) |  |  |  | 44.6 nM | 40.5 nM | 44 nM
UAUUUAAUCGUAGGAUAUAGAGUGAAAUUUGGACUAGAAGGACGUAACAUGAGGAUCACCCAUGUGGUAAGUGGGACACAGUGU [JR_SSNG1_Sub038] (Eterna round: R96, puzzle: Same State NG 1) |  |  |  | 150 nM | 66.8 nM | 90.5 nM
CACGUCUCGGUAGGAUAUGAGGUGCCAUAGGGAACAGCCUAUGGACAUGAGGAUCACCCAUGUCCUCAGAAGGGCCGGACGUGA [Leonis] (Eterna round: R96, puzzle: Same State NG 2) |  |  |  | 18.1 nM | 48.9 nM | 68.2 nM
UUUGCAUGACGAGGAUAUCAUUUAUUUCUUGAUUGAGAAGGCGUUUUUUUUAUUACCUAACAUGAGGAUCACCCAUGUGACAGU [JR_SSNG1_Sub045] (Eterna round: R96, puzzle: Same State NG 1) |  |  |  | 14.8 nM | 19.6 nM | 18.4 nM
GCUACAUGAGGAUCACCCAUGUGUGUGUGGGAGUGAGUGGCUUAGGAUAUCUAUGAUUUUAGUUGAGAGAAGGAGGAUUGCUGU [SS-NG3-LRO09] (Eterna round: R96, puzzle: Same State NG 3) |  |  |  | 471 nM | 317 nM | 336 nM
GGUCCAGCCUGAGCUGGACAAAAGCAUGUACAUGAGGAUCACCCAUGUCAUGUACAAGCUUUUUGCUCGUCUUGAAA [JL mod - D87 - 8] (puzzle: Sensor for hsa-mir-208a) | 359 nM | 16.5 nM | 867 nM |  |  | 
GUGGUCAGACAUGAGGAUCACCCAUGUGGAAUAAAUAACAGACAGGAUAUUAAAUAUAGGAUAUAUAAGAAGGGUCGAUUGGUG (Eterna round: R96, puzzle: Same State NG 3) |  |  |  |  | 78.5 nM | 
UCUUGGUUUUUGCUCGUUUUUUGUGUUGAACAUGAGGAUCACCCAUGUAUUGUACGGUCCAAUUUAGUGGUAGUCCG [JMF 67] (puzzle: Sensor for hsa-mir-208a) | 38.4 nM | 25.3 nM | 38.7 nM |  |  | 
AUAAAACACAUGAGGAUCACCCAUGUGGCCGUAGUCGGCACACAGGAUAUCAAGCAACUAGAGCUUGAGAAGGGUGAGACAAAA [Raar] (Eterna round: R96, puzzle: Same State NG 3) |  |  |  | 179 nM | 4.09 nM | 250 nM
ACAUGAGGAUCACCCAUGUAUUUAUAUGAAUCUUAAGUUACGUAGGAUAUCGUCUAUACUAUCAACGAGAAGGACGAACUCAAA [JR_SSNG3_Sub069] (Eterna round: R96, puzzle: Same State NG 3) |  |  |  | 9.51 nM | 15.3 nM | 17.4 nM
UUAAUGAUGUAAGGAUAUACAUGAGGAUUUCUCGUAGAAGGUACAAGACAUGAGGAUCACCCAUGUGUCGCUCGAAAGAGCGUA [Mat - Same State NG 1 - JL mod - D20] (Eterna round: R96, puzzle: Same State NG 1) |  |  |  | 282 nM | 113 nM | 316 nM
GGAAUAUUUACAGGAUAUGAUUUGUAAAUUCGAUCAGAAGGGUGGAUGUCUUACACGGUUUGUUACAUGAGGAUCACCCAUGUC [SameState NG1 #12] (Eterna round: R96, puzzle: Same State NG 1) |  |  |  | 452 nM | 253 nM | 376 nM
CCGUAGAUGGUAGGAUAUGGAGCCUUAUUGGCUCCAGAAGGAUCGAAAACAUGAGGAUCACCCAUGUCGGCGGUCAAUAGACCG [Eli NG1ss - 84] (Eterna round: R96, puzzle: Same State NG 1) |  |  |  | 21.8 nM | 43.1 nM | 34.1 nM

Sequence | apparent KD of MS2 coat protein [1] | apparent KD of MS2 coat protein [2] | apparent KD of MS2 coat protein [3] | apparent KD of MS2 coat protein (input ligand: FMN 200 uM) | apparent KD of MS2 coat protein [4] | apparent KD of MS2 coat protein (input ligand: none)
GGUGAGAGAGUCUAGGAUAUGAAAGGAGAGACAUGAGGAUCACCCAUGUAAGAGAGAGAGGAGAGUUAGAAGGAGAAGAGAGUGG [Altered State 2-23 - Jieux - Same State 2] (puzzle: Same State 2) | 26.8 nM | 32 nM | 47 nM |  |  | 
ACUCGGCAGAUAGGAUAUCCUGCAUGGAUAGUAGGAGAAGGAUCGUGCGCACAUGAGGAUCACCCAUGUGCCAAAUAAUAACAA [Reatedor] (Eterna round: R96, puzzle: Same State NG 1) |  |  |  | 11 nM | 12.8 nM | 18.4 nM
GGUCCAGCCUGAGCUGGACAAAAGCAUGUACAUGAGGAUCACCCAUGUCAUGUACAAGCUUUUUGCUCGUCUUAAGU [Mat - hsa-mir-208a - 86] (puzzle: Sensor for hsa-mir-208a) | 508 nM | 16.8 nM | 927 nM |  |  | 
GGAGCCGGCACUGAGGAUAUUCAUAUUAAAACAUGAGGAUCACCCAUGUAGGCCAGAAGGCCUUGGGAGAAGGCAGGCCGGCCCG [Bibimoar - 1] (puzzle: Same State 2) | 18.8 nM | 177 nM | 276 nM |  |  | 
UACUGAGUCGUAGGAUAUGUAGGAUAUGGCGAGAGCUAAGCUUGGAAGUCACUUCUGCCAGAAGGACAGAAGGACGACUCUCUC [pwkr ssNG2 2FMN + F9.14] (Eterna round: R96, puzzle: Same State NG 2) |  |  |  | 705 nM | 237 nM | 55.5 nM
GCUAGUAAAAUUGUCAACAUGAGGAUCACCCAUGUAUGUUGGCAGGAUAUCGUUUGCAAAGCAAACGAGAAGGGCUAAACUAGC [Mat - Same State NG 3 - JL Mod - D12] (Eterna round: R96, puzzle: Same State NG 3) |  |  |  | 58.2 nM | 186 nM | 171 nM
GUGGUCAGACAUGAGGAUCACCCAUGUGGAAUAAAUAACGGUGAGGAUAUUGAAUAUAGGAUAUACGAGAAGGCAUGAUUGGUG (Eterna round: R96, puzzle: Same State NG 3) |  |  |  | 208 nM | 114 nM | 123 nM
UGUUUGUUGUGAGGAUAUACAUACACCUUACAUGAGGAUCACCCAUGUUUUAAUUUUGAUAGUUAGUAGAAGGCACAUGAUUAU [JR_SSNG2_Sub044] (Eterna round: R96, puzzle: Same State NG 2) |  |  |  | 21.3 nM | 28.1 nM | 46.5 nM
GCGAAGAGGUAAGGAUAUUCAUGGCGGAGACAUGAGGAUCACCCAUGUAGGAGACGAAAUCAAAGGGAGAAGGUACCAGGACGC [AK SSNG2-V2-15] (Eterna round: R96, puzzle: Same State NG 2) |  |  |  | 82.2 nM | 159 nM | 160 nM
AGGCCAUCGGGAGGAUAUGGCACCUUAUUGGUGCCAGAAGGUCCAACAUGAGGAUCACCCAUGUGGGAGAGUUCUAAUGAACAU [Fiskers NG1(SS) - 3] (Eterna round: R96, puzzle: Same State NG 1) |  |  |  | 28.4 nM | 25.3 nM | 32.2 nM
AAACGGUCGCUGCGGCAACCACAUGAGGAUCACCCAUGUACAUAGGAUAUCGCCUAAAAUACUGGCGAGAAGGGUGAUUAAAGA [Onbiriza] (Eterna round: R96, puzzle: Same State NG 3) |  |  |  | 28.7 nM | 17.9 nM | 73.7 nM
CUCAACAACACAGGAUAUCCAGGGAAAAGACCUGGAGAAGGGUGACCAACAUGAGGAUCACCCAUGUGACGGCUAGACCGUCUG [Isquce] (Eterna round: R96, puzzle: Same State NG 1) |  |  |  | 593 nM | 24 nM | 249 nM
AUAAACAGGCUAGGAUAUCCGGAAACUACAGGGCACGACCCUGUGGACAUGAGGAUCACCCAUGUGGAGAAGGAGCCACAUGAA [Edlatibi] (Eterna round: R96, puzzle: Same State NG 2) |  |  |  | 15.1 nM | 108 nM | 152 nM
GGUCCCUACGCACAGGAUAUUCUUUUGGCAACAUGAGGAUCACCCAUGUGUGCCGAUCAUGGUUAGAAGAAGGGUGGUAGGGACC [Usisus] (puzzle: Same State 2) | 9.87 nM | 12.9 nM | 13.5 nM |  |  | 
GCGAGCGUACUUGCAGACAUGAGGAUCACCCAUGUAACUGGACAGGAUAUGGUACCGUUUCGGUACCAGAAGGGUUUACUCAUG [JL SSNG3 3.57] (Eterna round: R96, puzzle: Same State NG 3) |  |  |  | 67.2 nM | 84 nM | 69.1 nM
